According to US20130196933A1 (BOARD OF TRUSTEES OF THE UNIVERSITY OF ILLINOIS, published 2013):
Where a chain is given by its changes, count along the chain named. Names and notes keep the numbering of the source.

B1: T7-FoxM1B L641A mutant protein (other, not shown: small tags and cut ends)
chain: MKTSPRRPLILKRRRLPLPVQNAPSETSEEEPKRSPAQQESNQAEASKEVAESNSCKFPAGIKIINHPTMPNTQVVAIPNNANIHSIITALTAKGKESGSSGPNKFILISCGGAPTQPPGLRPQTQTSYDAKRTEVTLETLGPKPAARDVNLPRPPGALCEQKRETCADGEAAGCTINNSLSNIQWLRKMSSDGLGSRSIKQEMEEKENCHLEQRQVKVEEPSRPSASWQNSVSERPPYSYMAMIQFAINSTERKRMTLKDIYTWIEDHFPYFKHIAKPGWKNSIRHNLSLHDMFVRETSANGKVSFWTIHPSANRYLTLDQVFKQQKRPNPELRRNMTIKTELPLGARRKMKPLLPRVSSYLVPIQFPVNQSLVLQPSVKVPLPLAASLMSSELARHSKRVRIAPKVLLAEEGIAPLSSAGPGKEEKLLFGEGFSPLLPVQTIKEEEIQPGEEMPHLARPIKVESPPLEEWPSPAPSFKEESSHSWEDSSQSPTPRPKKSYSGLRSPTRCVSEMLVIQHRERRERSRSRRKQHLLPPCVDEPELLFSEGPSTSRWAAELPFPADSSDPASQLSYSQEVGGPFKTPIKETLPISSTPSKSVLPRTPESWRLTPPAKVGGLDFSPVQTSQGASDPLPDPLGAMDLSTTPLQSAPPLESPQRLLSSEPLDLISVPFGNSSPSDIDVPKPGSPEPQVSGLAANRSLTEGLVLDTMNDSLSKILLDISFPGLDEDPLGPDNINWSQFIPELQ
notes: expressed in transfected U2OS cells; also called CMV T7-FoxM1B L641A; CMV FoxM1B L641A
B2: HA-p19^ARF Δ26-37 deletion mutant (other, not shown: small tags and cut ends)
chain: MGRRFLVTVRIQRAGRPLQERVFLVCALAFVNMLLRLERILRRGPHRNPGPGDDDGQRSRSSSSAQLRCRFELRGPHYLLPPGDRRSAGRLPGHAGGAARVRGSAGCARCLGSPAARLGPRAGTSRHRAIFAFRWVLFVFRWVVFVYRWERRPDRRA
notes: Deletion of p19 residues 26-37; also called CMV p19^ARFΔ26-37
B3: HA-p19^ARF Δ26-37+Δ1-14 deletion mutant (other, not shown: small tags and cut ends)
chain: GRPLQERVFLVCALAFVNMLLRLERILRRGPHRNPGPGDDDGQRSRSSSSAQLRCRFELRGPHYLLPPGDRRSAGRLPGHAGGAARVRGSAGCARCLGSPAARLGPRAGTSRHRAIFAFRWVLFVFRWVVFVYRWERRPDRRA
notes: Deletion of p19 residues 1-14 and 26-37
B4: HA-p19^ARF WT protein (other, not shown: small tags and cut ends)
chain: MGRRFLVTVRIQRAGRPLQERVFLVKFVRSRRPRTASCALAFVNMLLRLERILRRGPHRNPGPGDDDGQRSRSSSSAQLRCRFELRGPHYLLPPGDRRSAGRLPGHAGGAARVRGSAGCARCLGSPAARLGPRAGTSRHRAIFAFRWVLFVFRWVVFVYRWERRPDRRA
notes: residues 26-44 of it are the printed p19ARF 26-44 peptide; Expressed in transfected U2OS cells; also called WT p19; HA tagged p19

Key:
Cdk2 protein = Cdk2 protein (human, UniProt P24941 1-298); experiment: Co-IP from transfected U2OS extracts with Cdk2 antibody, Western blot with T7 tag antibody
Excerpt: The immunoprecipitated proteins were subjected to Western blot analysis using a monoclonal antibody against the T7 epitope tagged antibody protein.

[1] = molecular target: T1, GFP-FoxM1B fusion protein, wild type (CMV GFP-FoxM1B; GFP-T7-FoxM1B WT; GFP-FoxM1B 1-748 full-length) (human, UniProt Q08050 1-763); experiment: Co-IP with HA antibody, Western blot with GFP antibody
T1 construct: Expressed in transfected U2OS cells; also called CMV-GFP-T7-FoxM1B; GFP-FoxM1B WT; not shown: green fluorescent protein (EGFP) of the pEGFP-C2 expression plasmid (Clontech), N-terminal fusion partner
T1 sequence: B1 chain with A641L

GFP-FoxM1B 1-688 protein = molecular target: T2, GFP-FoxM1B 1-688 protein (human, UniProt Q08050 1-703); experiment: Co-IP from transfected U2OS extracts
T2 construct: not shown: green fluorescent protein (EGFP) of the pEGFP-C2 expression plasmid (Clontech), N-terminal fusion partner
T2 sequence: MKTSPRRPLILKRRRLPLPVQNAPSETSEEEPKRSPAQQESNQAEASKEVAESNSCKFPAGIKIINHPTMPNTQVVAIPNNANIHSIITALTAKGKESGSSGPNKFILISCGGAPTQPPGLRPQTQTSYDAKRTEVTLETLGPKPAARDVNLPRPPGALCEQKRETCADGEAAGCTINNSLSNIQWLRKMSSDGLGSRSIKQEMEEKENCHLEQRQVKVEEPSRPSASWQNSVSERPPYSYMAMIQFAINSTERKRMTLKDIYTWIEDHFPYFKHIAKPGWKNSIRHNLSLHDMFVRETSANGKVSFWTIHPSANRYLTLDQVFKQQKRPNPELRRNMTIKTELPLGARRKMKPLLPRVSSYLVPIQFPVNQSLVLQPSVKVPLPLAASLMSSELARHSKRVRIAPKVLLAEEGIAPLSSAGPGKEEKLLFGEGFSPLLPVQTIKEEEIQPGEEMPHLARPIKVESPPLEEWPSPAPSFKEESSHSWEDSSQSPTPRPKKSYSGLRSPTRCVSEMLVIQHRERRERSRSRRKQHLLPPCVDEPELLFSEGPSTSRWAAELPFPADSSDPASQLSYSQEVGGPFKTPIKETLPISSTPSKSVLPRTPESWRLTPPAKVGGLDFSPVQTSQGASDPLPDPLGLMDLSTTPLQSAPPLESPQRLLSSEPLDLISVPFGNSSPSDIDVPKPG

Binder	binding result [1]	also measured
B1	–	binding result (Cdk2 protein): no binding
B2	no binding	–
B3	no binding	–
B4	–	binding result (GFP-FoxM1B 1-688 protein): no binding
